From patent US10502741B2, “Means and methods for detecting activated MALT1” (Helmholtz Zentrum München Deutsches Forschungszentrum für …, priority 2014, dated 2019)

Target: T1, active MALT1 (Homo sapiens, UniProt Q9UDY8)
T1 construct: endogenous in cells; host or cells: Jurkat T cells, primary human PBMCs and T cells, DLBCL cell lines (HBL1, TMD8, OCI-Ly3, OCI-Ly10, U2932, RIVA, BJAB, Su-DHL-4, Su-DHL-6)
T1 sequence (Q9UDY8 1-824): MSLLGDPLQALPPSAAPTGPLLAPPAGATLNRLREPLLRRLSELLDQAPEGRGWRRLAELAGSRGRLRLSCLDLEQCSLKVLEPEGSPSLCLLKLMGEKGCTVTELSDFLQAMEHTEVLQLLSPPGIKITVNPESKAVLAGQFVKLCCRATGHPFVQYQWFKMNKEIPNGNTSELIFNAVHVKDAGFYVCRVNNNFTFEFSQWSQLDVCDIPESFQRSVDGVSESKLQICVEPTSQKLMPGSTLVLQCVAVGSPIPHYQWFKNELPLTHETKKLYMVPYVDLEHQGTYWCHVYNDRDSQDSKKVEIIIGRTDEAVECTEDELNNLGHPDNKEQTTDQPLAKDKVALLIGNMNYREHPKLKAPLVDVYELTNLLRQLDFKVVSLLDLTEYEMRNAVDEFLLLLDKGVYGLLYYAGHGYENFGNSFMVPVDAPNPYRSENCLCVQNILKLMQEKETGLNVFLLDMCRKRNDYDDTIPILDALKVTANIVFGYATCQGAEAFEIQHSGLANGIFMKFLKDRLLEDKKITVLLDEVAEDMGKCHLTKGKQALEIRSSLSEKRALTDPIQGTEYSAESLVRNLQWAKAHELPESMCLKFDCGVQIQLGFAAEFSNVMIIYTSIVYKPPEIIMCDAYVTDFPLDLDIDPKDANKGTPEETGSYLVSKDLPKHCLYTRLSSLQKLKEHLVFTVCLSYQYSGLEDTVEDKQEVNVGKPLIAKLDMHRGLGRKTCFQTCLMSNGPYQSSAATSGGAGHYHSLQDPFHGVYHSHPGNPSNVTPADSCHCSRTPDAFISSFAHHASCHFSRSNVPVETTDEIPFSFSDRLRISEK
Test: MALT1 ELASA in cryo-preserved patient DLBCL tumor samples
Settings: 0.25 μM on lysed tumor tissue
Experimental: FIG. 10: A) Active MALT1 detection in cryo-preserved patient tumor samples. Frozen tumor tissue was lysed with a douncer and syringe, incubated with z-VRPR-FMK (0.25 μM) (SEQ ID No. 6) or left untreated before MALT1 activity read-out as above. Relative MALT1 activity from each untreated and z-VRPR-FMK (SEQ ID No. 6) treated samples was measured and directly compared (ABC DLBCL n=8; GCB DLBCL n=7). Significance for MALT1 activity in untreated to z-VRPR-FMK (SEQ ID No. 6) treated samples was calculated by a two-tailed t-test (**<0.005). B) Oncogenic CARMA1 is sufficient to trigger MALT1 activation. BJAB transduced with CARMA1 WT or L244P (ABC derived) or L225PI (GCB derived) were lysed and treated with z-VRPR-FMK (SEQ ID No. 6) and analyzed as above. Results and SD from three independent experiments are shown. MALT1 activity is depicted as arbitrary units [AU].
Untreated DLBCL (1×10^7), primary T cells (0.25×10^7) or Jurkat T cells (0.2-1×10^7) (stimulated or not) were lysed in 300 μl co-IP buffer without protease inhibitors, centrifuged, incubated with probe 7 (concentration as depicted) for 1 h at RT, then transferred to streptavidin-coated plates (96 well, clear) and incubated o/n at 4° C. […] was determined after TMB substrate incubation in a photometer (Bio-Tek). […]

samples with reduction in MALT1 activity, GCB DLBCL (7 GCB DLBCL biopsies): one out of seven | samples with reduction in MALT1 activity, ABC DLBCL (8 ABC DLBCL biopsies): five out of eight
Substance: z-VRPR-FMK (Z N-terminal cap, FMK warhead)
